In patent publication US20150307569, “HETEROGENEOUS NUCLEAR RIBONUCLEOPROTEIN A2* (HNRNP A2*) AND NUCLEIC ACID ENCODING THE SAME” (Institute of Zoology, Chinese Academy of Sciences, published 2015):

What was measured:
[1] = molecular target: T1, hnRNP A2* (hnRNP A2 isoform lacking exons 7-9) (Rattus norvegicus); assay: EMSA; per text; conditions: tags: His6 (pET-28b, E. coli BL21(DE3)); label: 5' 32P
Experimental: (§1) 80 nM oligonucleotides having 5′ ends labeled with [γ-³²P] ATP (³²P-labeled oligonucleotides) were incubated with 400 nM recombinant hnRNP A2* at 4° C. for 30 min in a binding buffer [10 mM Tris(hydroxymethyl)metyl aminomethane (Tris) (pH 8.0), 1 mM ethylenediaminetetraacetic acid (EDTA), and 150 mM KCl] and resolved on a 8% (wt/vol) native PAGE gel. The gel was then visualized by phosphoimaging using a Typhoon PhosphorImager.
(§2) The cDNA encoding hnRNP A2* was cloned and expressed in Escherichia coli, producing a recombinant protein with the expected molecular mass (FIG. 2A). The exons 7-9 coded the glycine-rich domain (GRD) and provided additional DNA/RNA binding sites in addition to two RNA recognition sites (RRM). […] This is in contrast to hnRNP which has a broad DNA-binding specificity with the consensus sequence N(A,C,T)(C,T)(A,G)G(C,G,T)(A,T)NNN. […] The binding specificity of hnRNP A2* was further verified by constructing 10 mutant variants of the MBS, each carrying a single mutation to cytosine at each nucleotide. All the mutations within the MBS abolished the bindings except the mutations of thymines in the vicinity of GGG (FIG. 2E).

[2] = molecular target: T1, hnRNP A2* (hnRNP A2 isoform lacking …); assay: EMSA; minimal binding site; conditions: tags: His6 (pET-28b, E. coli BL21(DE3)); label: 5' 32P
Experimental: as §1, §2

[3] = molecular target: T1, hnRNP A2* (hnRNP A2 isoform lacking …); assay: EMSA; per text: all MBS mutations abolish except thymines near GGG; conditions: tags: His6 (pET-28b, E. coli BL21(DE3)); label: 5' 32P
Experimental: as §1, §2

[4] = molecular target: T1, hnRNP A2* (hnRNP A2 isoform lacking …); assay: EMSA; 150 mM KCl, 4 C; conditions: tags: His6 (pET-28b, E. coli BL21(DE3)); label: 5' 32P
Experimental: as §1, §2

[5] = molecular target: T1, hnRNP A2* (hnRNP A2 isoform lacking …); assay: competition; very low or no binding; conditions: tags: His6 (pET-28b, E. coli BL21(DE3))
Experimental: as §1, §2

[6] = molecular target: T1, hnRNP A2* (hnRNP A2 isoform lacking …); assay: EMSA; G-quadruplex substrate complex; stimulates telomerase; conditions: tags: His6 (pET-28b, E. coli BL21(DE3)); G4
Experimental: as §1

[7] = molecular target: T1, hnRNP A2* (hnRNP A2 isoform lacking …); assay: EMSA; thymine next to G-tract tolerated; conditions: tags: His6 (pET-28b, E. coli BL21(DE3)); label: 5' 32P
Experimental: as §1, §2

[8] = molecular target: 28-kDa telomeric DNA-binding protein (hnRNP A2*), rat liver nuclear matrix (Rattus norvegicus); assay: Southwestern blot; conditions: label: 5' 32P
[9] = molecular target: T1, hnRNP A2* (hnRNP A2 isoform lacking …); assay: EMSA; 10 mM Tris pH 8.0, 1 mM EDTA, 150 mM KCl, 4 C; 400 nM protein, 80 nM DNA; conditions: tags: His6 (pET-28b, E. coli BL21(DE3)); label: 5' 32P
Experimental: as §1, §2

T1 sequence (chain, as listed by the source): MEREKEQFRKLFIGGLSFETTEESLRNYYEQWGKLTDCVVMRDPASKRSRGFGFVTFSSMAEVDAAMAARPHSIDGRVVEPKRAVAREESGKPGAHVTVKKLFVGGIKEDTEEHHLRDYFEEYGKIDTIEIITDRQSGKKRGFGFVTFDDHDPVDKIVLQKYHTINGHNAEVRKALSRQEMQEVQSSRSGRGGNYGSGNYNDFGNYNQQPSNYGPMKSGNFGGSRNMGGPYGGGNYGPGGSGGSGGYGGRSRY
28-kDa telomeric DNA-binding protein (hnRNP A2*), rat liver nuclear matrix (Rattus norvegicus), sequence (chain, as listed by the source): as above

B1: 15-mer G3C (ssDNA)
DNA: TACGGTTAGGGTTAG
modifications: [none]
[1]
  binding result: no binding

B2: MBS (ssDNA)
DNA: TAGGGTTAGG
[2]
  binding result: binds

B3: 15-mer A2C (ssDNA)
DNA: TCGGGTTAGGGTTAG
modifications: [none]
[3]
  binding result: no binding

B4: MBS-containing 15-mer W (ssDNA)
DNA: TAGGGTTAGGGTTAG
[4]
  binding result: binds

B5: double-stranded (TTAGGG)3 (dsDNA)
DNA 1: TTAGGGTTAGGGTTAGGG
DNA 2: CCCTAACCCTAACCCTAA
[5]
  binding result: no binding

B6: 15-mer G9C (ssDNA)
DNA: TAGGGTTACGGTTAG
modifications: [none]
[1]
  binding result: no binding

B7: 15-mer G5C (ssDNA)
DNA: TAGGCTTAGGGTTAG
modifications: [none]
[1]
  binding result: no binding

B8: 15-mer G10C (ssDNA)
DNA: TAGGGTTAGCGTTAG
modifications: [none]
[1]
  binding result: no binding

B9: TSG4 (structured_DNA)
DNA: GGGCTAGGGCTAGGGCTAGGGAGTT
[6]
  binding result: binds

B10: 15-mer T6C (ssDNA)
DNA: TAGGGCTAGGGTTAG
modifications: [none]
[7]
  binding result: binds

B11: (TTAGGG)3 (ssDNA)
DNA: TTAGGGTTAGGGTTAGGG
[8]
  binding result: binds
[9]
  binding result: binds

B12: 15-mer G4C (ssDNA)
DNA: TAGCGTTAGGGTTAG
modifications: [none]
[1]
  binding result: no binding

B13: (TTAGAG)3 (ssDNA)
DNA: TTAGAGTTAGAGTTAGAG
[5]
  binding result: no binding

B14: 15-mer A8C (ssDNA)
DNA: TAGGGTTCGGGTTAG
modifications: [none]
[1]
  binding result: no binding

B15: (TAAGGG)3 (ssDNA)
DNA: TAAGGGTAAGGGTAAGGG
[5]
  binding result: no binding

B16: (TTGGGG)3 (ssDNA)
DNA: TTGGGGTTGGGGTTGGGG
[5]
  binding result: no binding
